The experiment addresses oligomeric EF-Tu (^OligoEF-Tu), unfolded (UniProt P0CE47 1-394). Kind of experiment: ITC; 20 °C.

Sequence of oligomeric EF-Tu (^OligoEF-Tu), unfolded (P0CE47 whole entry): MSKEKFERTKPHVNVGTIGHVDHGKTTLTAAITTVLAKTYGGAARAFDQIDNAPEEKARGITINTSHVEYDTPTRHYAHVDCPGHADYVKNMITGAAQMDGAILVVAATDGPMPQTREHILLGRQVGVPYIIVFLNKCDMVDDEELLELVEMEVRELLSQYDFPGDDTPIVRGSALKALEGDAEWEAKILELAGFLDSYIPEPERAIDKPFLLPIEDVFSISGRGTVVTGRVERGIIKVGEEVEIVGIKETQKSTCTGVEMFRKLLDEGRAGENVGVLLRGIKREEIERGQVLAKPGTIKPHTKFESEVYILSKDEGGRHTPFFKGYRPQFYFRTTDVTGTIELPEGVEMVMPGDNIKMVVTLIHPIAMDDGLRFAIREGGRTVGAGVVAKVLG

B1: trigger factor (TF) (natural protein)
chain: MQVSVETTQGLGRRVTITIAADSIETAVKSELVNVAKKVRIDGFRKGKVPMNIVAQRYGASVRQDVLGDLMSRNFIDAIIKEKINPAGAPTYVPGEYKLGEDFTYSVEFEVYPEVELQGLEAIEVEKPIVEVTDADVDGMLDTLRKQQATWKEKDGAVEAEDRVTIDFTGSVDGEEFEGGKASDFVLAMGQGRMIPGFEDGIKGHKAGEEFTIDVTFPEEYHAENLKGKAAKFAINLKKVEERELPELTAEFIKRFGVEDGSVEGLRAEVRKNMERELKSAIRNRVKSQAIEGLVKANDIDVPAALIDSEIDVLRRQAAQRFGGNEKQALELPRELFEEQAKRRVVVGLLLGEVIRTNELKADEERVKGLIEEMASAYEDPKEVIEFYSKNKELMDNMRNVALEEQAVEAVLAKAKVTEKETTFNELMNQQA
As for B1, binding was put at a Kd of 1.86 µM.

The values are drawn from article PMC8614738 (2021).
